Common to all, as to test: cell-based or functional assay
The target in one assay is mHTTex1-72Q-eGFP (human) (UniProt P42858).
The target in assay [1] is human α-synuclein protein (human).
Assay [2] deals with human α-synuclein-GFP (human).

“And” between values parts separate entries of the source, which are not always exact repeats. Equal values may be shown once.

UniProt P42858, sequence (P42858 other isoform, or with tags, fused parts or gaps): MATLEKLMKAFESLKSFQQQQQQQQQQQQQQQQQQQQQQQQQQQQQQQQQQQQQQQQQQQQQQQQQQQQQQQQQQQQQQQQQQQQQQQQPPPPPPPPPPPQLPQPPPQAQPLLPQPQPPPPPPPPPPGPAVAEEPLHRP

Consider scFv-C4-hPEST, for which the soluble mHTTex1-72Q-GFP by western blot (EM48/GAPDH, normalized to EV-CON) (% relative to control) in the assay with mHTTex1-72Q-eGFP (human) was in the range of 75 to 100.

The molecule scFv-C4-hPEST-T436A showed a soluble mHTTex1-72Q-GFP by western blot (EM48/GAPDH, normalized to EV-CON) (% relative to control) with mHTTex1-72Q-eGFP (human) of 75 to 100.

As for scFv-C4-hPEST-E428A-E430A-E431A, the soluble mHTTex1-72Q-GFP by western blot (EM48/GAPDH, normalized to EV-CON) in the assay with mHTTex1-72Q-eGFP (human) was 50 to 75 % of control.

Turning to scFv-C4-hPEST-S440A, the soluble mHTTex1-72Q-GFP by western blot (EM48/GAPDH, normalized to EV-CON) with mHTTex1-72Q-eGFP (human) was 25 % of control and 0 % of control.

Turning to scFv-C4-hPEST-E444A, in the assay with mHTTex1-72Q-eGFP (human), the soluble mHTTex1-72Q-GFP by western blot (EM48/GAPDH, normalized to EV-CON) is 50 to 75 % of control.

B1: SS-PEN-DB1-PEST (VHH)
VHH: MEFGLSWLFLVAILKGVQGRQIKIWFQNRRMKWKKSRAEVQLQASGGGFVQPGGSLRLSCAASGFTSWEDTMGWFRQAPGKEREFVSAISFDANDLSDTSVYYADSVKGRFTISRDNSKNTVYLQMNSLRAEDTATYYCAVASFEILLYGESLHIYWGQGTQVTVSSAAAYPYDVPDYANPDFPPEVEEQDASTLPVSCAWESGMKRHRAACASASINV
As for B1, in assay [1], the reduction of endogenous synuclein by western blot, 3×SNCA cortical cultures given conditioned media was 30%.

B2: SS-435b-N77D-hP (VHH)
VHH: VQLVESGGGGLVQPGGSLRLSCVTPGGIFSDYAMGWYRQAPGKQRELVADITVSDTTRYSDPVKGRFTISRDNAKDMVYLQMNSLKPEDAAIYTCNAQKWEDRYGSSERYDYWGQGTQVTVSS
Take B2: the reduction of endogenous α-synuclein by western blot relative to SS-N77K-hP control, 3×SNCA cortical cultures in assay [1] came to 40%.

B3: SS-PEN-N77D-PEST (VHH)
VHH: MEFGLSWLFLVAILKGVQGRQIKIWFQNRRMKWKKSRQVQLVESGGGGLVQPGGSLRLSCVTPGGIFSDYAMGWYRQAPGKQRELVADITVSDTTRYSDPVKGRFTISRDNAKDMVYLQMNSLKPEDAAIYTCNAQKWEDRYGSSERYDYWGQGTQVTVSSAHHSEDPAAAYPYDVPDYNPDFPPEVEEQDASTLPVSCAWESGMKRHRAACASASINV
For B3, in assay [1], the reduction of endogenous synuclein by western blot, 3×SNCA cortical cultures given conditioned media worked out at 40% and the reduction of endogenous α-synuclein by western blot relative to SS-N77K-hP control, 3×SNCA cortical cultures turned out to be 40%. The same molecule had a reduction of α-Syn˜eGFP by western blot, recipient ST14A cells given conditioned media in assay [2] of 20%.

For the origin of these results see patent US20250326824A1.
